The values that follow are results of earlier work, collected in publication PMC11267001.

The target of the data set is DOCK5ΔC/ELMO1 DOCK5 1-1642 (Homo sapiens) (UniProt Q9H7D0).

As a reminder, the Kd is the constant that tells how readily two partners part at equilibrium. With RhoG (from UniProt P84095), the Kd was 10 µM.
